Data: patent US20250215104A1 (WALDEN BIOSCIENCES, published 2025)
Where a chain is given by its changes, count along the chain named.

B1: suPAR_DB04_E02 (scFv, V domains shown)
VH: QVQLVQSGAEVKKPGASVKVSCKASGYTFTSYYMHWVRQAPGQGLEWMGWIDPENGSTIYDQKFQGRVTMTRDTSTSTVYMELSSLRSEDTAVYYCARGYDVDWFVYWGQGTLVTVSS
VL: DIQMTQSPSSLSASVGDRVTITCRARSSVSYMYWYQQKPGKAPKLLIYATSNLASGVPSRFSGSGSGTDFTLTISSLQPEDFATYYCQQYHSYPPTFGGGTKVEIK
notes: scFv clone from phage display
B2: suPAR_DB03_A12 (scFv, V domains shown)
VH: QVQLVQSGAEVKKPGASVKVSCKASGYTFSRYYMHWVRQAPGQGLEWIGWMNPNTGDTGYAQKFQGRVTMTRDTSTSTVYMELSSLRSEDTAVYYCARGYDVDFFVYWGQGTLVTVSS
VL: DIQMTQSPSSLSASVGDRVTITCRASQGISGWLAWYQQKPGKAPKLLIYDASSLQSGVPSRFSGSGSGTDFTLTISSLQPEDFATYYCQQSYSDPLTFGGGTKVEIK
notes: screened as scFv
B3: suPAR_DB06_C05 (scFv, V domains shown)
VH: QVQLVQSGAEVKKPGASVKVSCKASGGTFSSYAISWVRQAPGQGLEWMGVIDPSGGTTDYAQKFQGRVTMTRDTSTSTVYMELSSLRSEDTAVYYCARGYDVDWFVYWGQGTLVTVSS
VL: DIQMTQSPSSLSASVGDRVTITCRTSQSISSFLNWYQQKPGKAPKLLIYDVSHLESGVPSRFSGSGSGTDFTLTISSLQPEDFATYYCQQYHSYPPTFGGGTKVEIK
B4: suPAR_DB06_E12 (scFv, V domains shown)
VH: B1 VH with P53H, S57N, I59S, D61A
VL: B1 VL with A49R
B5: suPAR_DB06_E01 (scFv, V domains shown)
VH: QVQLVQSGAEVKKPGASVKVSCKASGFNFKDYYIHWVRQAPGQGLEWMGWMDPSSGNTAYAQKFQGRVTMTRDTSTSTVYMELSSLRSEDTAVYYCARGYDVDWFVYWGQGTLVTVSS
VL: B1 VL with R24S, S27Q, V29I, A49R
B6: suPAR_DB06_F04 (scFv, V domains shown)
VH: B1 VH with T28R, S57N, D61A
VL: B1 VL with R24S, S27Q, A49R
B7: suPAR_DB06_G04 (scFv, V domains shown)
VH: B1 VH with S31G, D52N, N55G, I59N, D61E
VL: B1 VL with R24S, S27Y, A49R
B8: suPAR_DB06_F05 (scFv, V domains shown)
VH: B1 VH with Y27D, T28S, S31G, M34I, P53H, S57N
VL: B1 VL with R24S, A49R
B9: suPAR_DB06_F03 (scFv, V domains shown)
VH: B1 VH with T28S, S31N, P53H, S57N, Y100N
VL: B1 VL with R24S, R26S, S27Q, A49R
B10: suPAR_DB06_F06 (scFv, V domains shown)
VH: B1 VH with Y27G, T30I, S31G, Y32H, M34V, P53H, S57N
VL: B1 VL with R24S, A49R
B11: suPAR_DB06_G01 (scFv, V domains shown)
VH: B1 VH with Y27D, S31G, P53H, D61A
VL: B1 VL with R24S, A49R
B12: suPAR_DB06_G02 (scFv, V domains shown)
VH: B1 VH with T28N, F29I, S31D, M34I
VL: B1 VL with A49R
B13: suPAR_DB06_F11 (scFv, V domains shown)
VH: B1 VH with S31N, P53H, D61A
VL: B1 VL with R24S, A49R, A54Q
B14: suPAR_DB06_F02 (scFv, V domains shown)
VH: B1 VH with S31N, P53H, I59S
VL: B1 VL with S27Q, A49R
B15: suPAR_DB06_G06 (scFv, V domains shown)
VH: B1 VH with Y27F, S31A, S57N, D61A
VL: B1 VL with R24S, R26S, S27Q, A49R
B16: suPAR_DB06_F09 (scFv, V domains shown)
VH: B1 VH with S31T, N55G, S57N
VL: B1 VL with R24S, R26S, S27Q, A49R
B17: suPAR_DB06_F12 (scFv, V domains shown)
VH: B1 VH with T30S, S57N, D61A
VL: B1 VL with S27Q, A49R
B18: suPAR_DB06_F08 (scFv, V domains shown)
VH: B1 VH with S31G, Y32N, M34V, P53H, E54S, S57N
VL: B1 VL with R24S, A49R
B19: suPAR_DB06_F01 (scFv, V domains shown)
VH: B1 VH with Y27G, M34V, N55G, S57N, I59S
VL: B1 VL with R24S, A49R
B20: suPAR_DB06_G03 (scFv, V domains shown)
VH: B1 VH with T30S, N55G, S57N, D61A
VL: B1 VL with R24S, A49R
B21: suPAR_DB01_C01 (scFv, V domains shown)
VH: B1 VH with S31G, P53H, S57N
VL: B1 VL with R24S, A49R
notes: screened as scFv
B22: suPAR_DB01_A07 (scFv, V domains shown)
VH: B1 VH with Y27G, P53H, I59S
VL: B1 VL with R24S, A49R
notes: screened as scFv
B23: suPAR_DB01_A06 (scFv, V domains shown)
VH: B1 VH with P53H, S57N
VL: B1 VL with S27Q, A49R
notes: screened as scFv
B24: suPAR_DB01_B04 (scFv, V domains shown)
VH: B1 VH with P53H, S57N
VL: B1 VL with R24S, R26S, A49R
notes: screened as scFv
B25: suPAR_DB01_A03 (scFv, V domains shown)
VH: B1 VH with Y32N, M34I, P53H, I59S
VL: B1 VL with R24S, A49R
notes: screened as scFv
B26: suPAR_DB01_A10 (scFv, V domains shown)
VH: B1 VH with T30S, S31N, P53H, S57N
VL: B1 VL with R24S, A49R
notes: screened as scFv
B27: suPAR_DB01_B02 (scFv, V domains shown)
VH: B1 VH with S31N, P53H, S57N
VL: B1 VL with R24S, A49R
notes: screened as scFv
B28: suPAR_DB01_B01 (scFv, V domains shown)
VH: B1 VH with S31D, P53H, S57N
VL: B1 VL with R24S, R26S, S27Q, A49R
notes: screened as scFv
B29: suPAR_DB01_A05 (scFv, V domains shown)
VH: B1 VH with S31G, P53H, S57N
VL: B1 VL with S27Q, A49R
notes: screened as scFv
B30: suPAR_DB01_A11 (scFv, V domains shown)
VH: B1 VH with S31N, P53H, S57N
VL: B1 VL with R24S, R26S, S27Q, A49R
notes: screened as scFv
B31: suPAR_DB01_A04 (scFv, V domains shown)
VH: B1 VH with S31G, P53H, S57N
VL: B1 VL with R24S, R26S, S27Q, A49R
notes: screened as scFv
B32: suPAR_DB01_A12 (scFv, V domains shown)
VH: B1 VH with S31G, N55G, S57N, D61A
VL: B1 VL with R24S, A49R
notes: screened as scFv
B33: suPAR_DB01_B03 (scFv, V domains shown)
VH: B5 VH with F29I, M51I, S54E, S55N, A59I
VL: B1 VL with R26S, A49R
notes: screened as scFv
B34: suPAR_DB01_A02 (scFv, V domains shown)
VH: EVQLEESGAELVRPGALVKLSCKASGFNIKDYYIHWVKQRPEQGLEWIGWIDHENGNTIYDPKFQGKASITLDTSSNTAYLQLNSLTSEDTAVYYCARGYDVDWFVYWGQGTLVTVSS
VL: QIVLTQSPAIMSASPGEKVTIYCSARSSVSYMYWYQQKPGSSPKPWIYRTSNLASGVPARFSGSGSGTSYSLTISSMEAEDAATYYCQQYHSYPPTFGGGTKLEIK
notes: screened as scFv

The binders below were run against T1, human soluble urokinase plasminogen activator receptor (hsuPAR) (human, UniProt Q03405 23-303, limits assumed) (assay: off-rate screen of scFv clones (kdis), Octet BLI).
T1 construct: also called human suPAR; rhuPAR-His
T1 sequence (Q03405 23-303 limits assumed): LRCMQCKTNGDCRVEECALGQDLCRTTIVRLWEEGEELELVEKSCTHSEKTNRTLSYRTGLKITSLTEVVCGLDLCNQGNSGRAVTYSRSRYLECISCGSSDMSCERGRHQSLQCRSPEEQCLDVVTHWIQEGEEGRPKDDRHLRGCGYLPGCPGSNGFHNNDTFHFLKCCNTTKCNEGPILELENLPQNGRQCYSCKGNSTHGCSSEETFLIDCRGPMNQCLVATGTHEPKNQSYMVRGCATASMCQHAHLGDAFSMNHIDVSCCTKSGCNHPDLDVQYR

Binder | koff
B1 | 0.00497 s⁻¹

What follows are binders tested against T2, human soluble urokinase plasminogen activator receptor (hsuPAR) (human, UniProt Q03405 23-303, limits assumed) (assay: BLI (Octet) off-rate screen of scFv clones).
T2 construct: Target antigen of the off-rate screen; also called human suPAR; rhuPAR-His
T2 sequence (Q03405 23-303 limits assumed): as above

Binder | koff
B2 | 0.0544 s⁻¹

What follows are binders tested against T3, cynomolgus soluble urokinase plasminogen activator receptor (suPAR) (cynomolgus, UniProt Q9GK78 23-303, limits assumed) (assay: BLI (Octet) off-rate screen of scFv clones).
T3 construct: Target antigen of the scFv off-rate screen; also called cynomolgus suPAR; cynomolgus uPAR
Target sequence in this assay (Q9GK78 23-303 limits assumed): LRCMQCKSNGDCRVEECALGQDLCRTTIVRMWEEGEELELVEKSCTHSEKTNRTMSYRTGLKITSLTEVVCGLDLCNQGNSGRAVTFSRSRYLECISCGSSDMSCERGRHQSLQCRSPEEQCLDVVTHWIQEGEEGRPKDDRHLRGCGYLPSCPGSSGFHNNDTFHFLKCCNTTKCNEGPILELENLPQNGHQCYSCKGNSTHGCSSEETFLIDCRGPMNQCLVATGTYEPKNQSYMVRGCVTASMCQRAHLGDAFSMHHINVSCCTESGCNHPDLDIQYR

Binder | koff
B3 | 0.0623 s⁻¹
B4 | 0.000164 s⁻¹
B5 | 0.000126 s⁻¹
B6 | 0.000315 s⁻¹
B7 | 0.000223 s⁻¹
B8 | 3.1e-07 s⁻¹
B9 | 0.00059 s⁻¹
B10 | 0.00055 s⁻¹
B11 | 0.000134 s⁻¹
B12 | 0.000375 s⁻¹
B13 | 0.00059 s⁻¹
B14 | 0.000258 s⁻¹
B15 | 5.28e-07 s⁻¹
B16 | 0.000353 s⁻¹
B17 | 0.000195 s⁻¹
B18 | 0.000537 s⁻¹
B19 | 0.000197 s⁻¹
B20 | 0.000231 s⁻¹

Each binder was assayed against T4, human soluble urokinase plasminogen activator receptor (suPAR) (human, UniProt Q03405 23-303, limits assumed) (assay: BLI (Octet) off-rate screen of scFv clones).
T4 construct: Target antigen of the scFv off-rate screen; also called hsuPAR; human suPAR
T4 sequence (Q03405 23-303 limits assumed): as the sequence (Q03405 23-303 limits assumed) above

Binder | koff
B3 | 0.373 s⁻¹
B4 | 0.00373 s⁻¹
B5 | 0.00483 s⁻¹
B6 | 0.00574 s⁻¹
B7 | 0.00549 s⁻¹
B8 | 0.00531 s⁻¹
B9 | 0.004 s⁻¹
B10 | 0.00331 s⁻¹
B11 | 0.00148 s⁻¹
B12 | 0.00384 s⁻¹
B13 | 0.000947 s⁻¹
B14 | 0.00157 s⁻¹
B15 | 0.00431 s⁻¹
B16 | 0.00302 s⁻¹
B17 | 0.00426 s⁻¹
B18 | 0.00174 s⁻¹
B19 | 0.00305 s⁻¹
B20 | 0.00381 s⁻¹

What follows are binders tested against T5, cynomolgus soluble urokinase plasminogen activator receptor (suPAR) (cynomolgus, UniProt Q9GK78 23-303, limits assumed) (assay: off-rate (kdis) screen of scFv clones, biosensor (Octet)).
T5 construct: Target antigen of the off-rate screen; also called cynomolgus uPAR; cynomolgus suPAR
Target sequence in this assay (Q9GK78 23-303 limits assumed): as the sequence (Q9GK78 23-303 limits assumed) above

Binder | koff
B21 | 0.000266 s⁻¹
B22 | 0.00156 s⁻¹
B23 | 4.27e-07 s⁻¹
B24 | 8.48e-05 s⁻¹
B25 | 0.000231 s⁻¹
B26 | 0.000299 s⁻¹
B27 | 0.000177 s⁻¹
B28 | 4.88e-07 s⁻¹
B29 | 0.000326 s⁻¹
B30 | 0.000479 s⁻¹
B31 | 0.00021 s⁻¹
B32 | 0.000142 s⁻¹
B33 | 3.5e-07 s⁻¹

What follows are binders tested against T6, human soluble urokinase plasminogen activator receptor (suPAR) (human, UniProt Q03405 23-303, limits assumed) in the same assay as above.
T6 construct: Target antigen of the off-rate screen; also called hsuPAR; human suPAR
T6 sequence (Q03405 23-303 limits assumed): as the sequence (Q03405 23-303 limits assumed) above

Binder | koff
B21 | 0.00122 s⁻¹
B22 | 0.00571 s⁻¹
B23 | 0.00253 s⁻¹
B24 | 0.00206 s⁻¹
B25 | 0.00256 s⁻¹
B26 | 0.00194 s⁻¹
B27 | 0.00142 s⁻¹
B28 | 0.0028 s⁻¹
B29 | 0.00174 s⁻¹
B30 | 0.0015 s⁻¹
B31 | 0.000911 s⁻¹
B32 | 0.00128 s⁻¹
B33 | 0.00329 s⁻¹
B34 | 3.54e-07 s⁻¹
